Like-named read-outs stand apart in the source and are kept apart here.
Key:
male Sprague-Dawley rats [1] = test: Kaolin intake (pica) test; conditions: for kaolin intake after dosing relative to 0.9% NaCl: LiCl IP, exendin-4 and CJC-1134-PC 0.5 nmol/kg SC
Experimental: (§1) Ninety male Sprague-Dawley rats of 6 weeks in age were housed individually and given food and water ad libitum. Habituation to kaolin was achieved by offering fresh blocks of kaolin daily for 8 days before dosing. Rats were then assigned to nine treatment groups (n=10/group).
(§2) Immediately following injection, animals were offered a fresh kaolin block in addition to food and water. Kaolin intake was measured every hour for a four-hour period immediately after dosing, and also at 6, 8, and 24 hours post dose (FIG. 3).

subjects = conditions: subcutaneous injection, 1.5 nmol/kg body weight and higher; cited from earlier work
male Sprague-Dawley rats [2] = conditions: rat, in vivo
Source text: One model for studying gastrointestinal malaise in response to administration of a test agent is the conditioned taste aversion test (Peeters and Broekkamp, 1994, J. Steroid Biochem. Mol. Biol., 49:417-427). Conditioned taste aversion is a form of associative learning in which animals learn to avoid flavors of substances where initial ingestion of the substance was followed by illness. In conditioned taste aversion, animals learn to associate a flavor, or conditioned stimulus, with the aversive effects of an administered agent, or unconditioned stimulus. Following conditioned stimulus—unconditioned stimulus pairings, animals reduce their consumption of the conditioned stimulus, and/or show a preference for other tastes when later presented with the conditioned flavor. […] The conditioned stimulus was 0.1% saccharin flavored water with high palatability. […]
Following injection, all groups were given food ad libitum and 2 bottles of water. At 72 h and 96 h post dose, a choice of tap water or 0.1% saccharin solution (conditioned stimulus) was offered, and intake of both solutions was measured for 12 hours. Mean saccharin preference ratios, representing the percentage of saccharin solution consumed relative to total liquid intake, were determined for each group (FIGS. 1 and 2).

Sprague Dawley rats = test: Rat toxicity study (7-day and 28-day); type: in vivo
Experimental: Immediately following injection, rats were housed individually, and food consumption and changes in body weights were monitored. […] However, by day 4, food consumption was similar to that observed in rats receiving vehicle only (FIG. 4). […] (FIG. 5).
Recombinant human albumin (rHA) was also dosed at 23 mg/kg as an additional control.

monkeys = test: Monkey toxicity study (7-day and 28-day); type: in vivo
Experimental: Recombinant human albumin was also dosed at 9 mg/kg as an additional control.

[3] = test system: female diabetic db/db mice; type: in vivo, mouse; conditions: for abnormal clinical signs: mouse, in vivo
Experimental: Blood glycemia was recorded at the following time points: pre-dose, 1, 3, 6, 24, 30, 48, 52, 74 and 101 hours post dose using a handheld glucometer (Accu-check compact, Roche Diagnostics, Canada). Food and water intake were recorded at the following timepoints: 0 to 6, 6 to 24, 24 to 30, 30 to 48, 48 to 72 and 72 to 101 hours post dose.

[4] = test system: Male Zucker Diabetic Fatty (ZDF) rats; test: Anti-obesity test in ZDF rats; type: in vivo, rat; conditions: for cumulative food intake relative to 0.9% NaCl group / cumulative weight gain compared to 0.9% NaCl: 25 days; for cumulative weight gain compared to 0.9% NaCl: four weekly SC injections, 100 and 200 nmol/kg; for day on which decrease in cumulative food intake reached statistical significance: relative to 0.9% NaCl group, weekly SC injections
Experimental: Control animal were injected with 0.9% NaCl. Animals were weighed twice a week and food intake was measured daily for the first week and four times a week thereafter for a total of 25 days. Statistical analysis was performed using two-way Analysis of Variance (ANOVA) followed by the Tukey's pair-wise comparison test. Significance was considered when P value was less than 0.05.

[5] = test system: patients with stable Type 2 diabetes; test: Phase I/II single escalating dose clinical study of CJC-1134-PC; type: in vivo, human; conditions: for Nausea (%) / Vomiting (%): N=6
Experimental: Patients enrolled in the trial had HbA1c levels between 6.5% and 11%. Patients previously treated with oral anti-diabetic agents discontinued therapy at least 1 week prior to dosing. […] Injections were performed with a 29 gauge needle. Each cohort consisted of 7 patients (6 active, 1 placebo). The mean glucose values at baseline of the cohorts (without placebo) were 15.6, 12.2, 12.1, 11.2, 9.6 and 15.3 mmol/L, respectively.
The efficacy parameters were based on the group mean and individual mean glucose values. Glucose was measured 6 times per day (fasting, 2-hour post-breakfast, pre-lunch, 2-hour post-lunch, pre-dinner and bedtime) during the first week and 3 times per day (fasting, 2-hour post-breakfast and bedtime) for the remaining 5 weeks of the study. In addition, a placebo group was constructed for data analysis by pooling the patients (one per cohort) that received placebo during the study. […] At the third cohort (1250 micrograms), the mean glucose reduction from baseline for the first week was 19% (ranging from 15% to 24% with a mean reduction on day 7 of 20%), giving an average glucose value for the week of 9.8 mmol/L. This glucose reduction was significant against baseline (p=0.0007) and against placebo (p=0.0045). […] The glucose reductions of the subsequent cohorts were of similar magnitude and duration and confirmed this response. At the 2500 microgram cohort, the average glucose value for the first week was reduced to 9.5 mmol/L; the value for the 5000 microgram cohort for the first week was reduced to 8.4 mmol/L. (The American Diabetes Association (ADA) has a recommended target of HbA1C<7%; a mean daily glucose level of 9.5 mmol/L corresponds to an HbA1C level of 7%).

male Sprague-Dawley rats [6] = conditions: rat, in vivo; remark: listed apart in the source
Experimental: as §1, §2

[7] = 1250 μg (17.6 nmoles) single SC
[8] = 2500 μg (35.2 nmoles) single SC
[9] = 3750 μg (52.8 nmoles) single SC
[10] = 5000 μg (70.4 nmoles) single SC
[11] = first four cohorts (310, 620, 1250 and 2500 μg)

[Cl-].[Li+] [LiCl, Lithium chloride, reference compound]
kaolin intake after dosing relative to 0.9% NaCl (male Sprague-Dawley rats [1]): significant kaolin intake after 1 h

GLP-1: proglucagon-derived peptide secreted from intestinal L-cells; incretin
nausea and vomiting (subjects): lead to nausea and, less often, vomiting in a significant proportion of subjects

exendin-4(1-39) Lys^40 (ε-AEEA-MPA)-NH2 conjugated with albumin [CJC-1134-PC]
taste aversion response compared to unconjugated exendin-4 (male Sprague-Dawley rats [2]): significantly lower taste aversion response
clinical chemistry, hematology, urinalysis, organ weights, macroscopic evaluations (Sprague Dawley rats; rat 7-day study): no effects on clinical chemistry, hematology, urinalysis, or organ weights, or on macroscopic evaluations
mortality or serious signs of toxicity (Sprague Dawley rats; rat 7-day study, 1, 5 or 25 mg/kg/day SC): no mortality or serious signs of toxicity were observed
food consumption (Sprague Dawley rats; rat 7-day study, 5 and 25 mg/kg/day SC, similar to vehicle by day 4): dose dependent decrease in food consumption was observed at days 1-3
macroscopic evaluations (Sprague Dawley rats; rat 28-day study): no effects on macroscopic evaluations
food consumption (Sprague Dawley rats; rat 28-day study, 25 mg/kg, comparable across groups by day 8): decrease in food consumption was observed at 25 mg/kg from days 1-7
body weight (Sprague Dawley rats; rat 28-day study, 25 mg/kg, weight gain comparable days 4-28): Decreases in body weight were also observed at the 25 mg/kg/doses at days 1-4
activity and fecal output (Sprague Dawley rats; rat 28-day study, following injections): transient decrease in activity and fecal output
tolerability (Sprague Dawley rats; rats, up to 25 mg/kg): generally well tolerated
clinical chemistry, hematology, urinalysis, organ weights, macroscopic evaluations (monkeys; monkey 7-day study): no effects on clinical chemistry, hematology, urinalysis, or organ weights, or on macroscopic evaluations
mortality or serious signs of toxicity (monkeys; monkey 7-day study, 0.4, 2 and 10 mg/kg/day SC): no mortality or serious signs of toxicity were observed
food consumption (number of biscuits per day) (monkeys; monkey 7-day study, days 1-3, all groups including vehicle control, comparable by days 4-7): Initial decreases in food consumption
body weight (monkeys; monkey 7-day study, moderately attenuated by day 7): dose-dependent decrease in body weight by day 3
body weight (monkeys; monkey 28-day study): dose dependent decrease in body weight was observed throughout the 28-day period
clinical signs (monkeys; monkey 28-day study): transient decrease in activity, hunched posture, and decreased fecal output
macroscopic evaluations (monkeys; monkey 28-day study): no effects on macroscopic evaluations
food consumption (monkeys; monkey 28-day study, 10 mg/kg, comparable across groups by day 7): significantly reduced at 10/mg/kg on days 2 and 3
tolerability (monkeys; monkeys, up to 10 mg/kg): generally well tolerated
blood glucose levels compared to 100 nmol/kg unconjugated exendin-4 ([3]; 100 nmol/kg single SC, 24 h post dose): significantly lower
blood glucose levels compared to unconjugated exendin-4 ([3]; 100 nmol/kg single SC, out to 48 h post dose): remained lower
food and water consumption compared to unconjugated exendin-4 ([3]; 24-47 h post dose): remained lower
food and water consumption compared to unconjugated exendin-4 ([3]; after 24 hours): significantly reduced
blood glucose levels compared to unconjugated exendin-4 ([3]; after 72 h): comparable
food consumption relative to exendin-4 treated mice ([3]; after 74 h, maintained out to 101 h post dose): only moderately lower
abnormal clinical signs [3]: No abnormal clinical signs
water consumption relative to exendin-4 treated mice ([3]; out to 101 h post dose): moderately lower
day from which reduction of cumulative weight gain was statistically significant ([4]; 100 nmol/kg, p≦0.05): 11 days
day from which reduction of cumulative weight gain was statistically significant ([4]; 200 nmol/kg, p≦0.01): 4 days
cumulative food intake relative to 0.9% NaCl group [4]: Reduction in cumulative food intake
cumulative weight gain compared to 0.9% NaCl [4]: significantly reduced
day on which decrease in cumulative food intake reached statistical significance [4]: 9 days
Nausea (%) ([5]; 310 μg (4.4 nmoles) single SC): 0%
Vomiting (%) ([5]; 310 μg (4.4 nmoles) single SC): 0%
Nausea (%) ([5]; 620 μg (8.7 nmoles) single SC): 0%
Vomiting (%) ([5]; 620 μg (8.7 nmoles) single SC): 0%
Nausea (%) [5, 7]: 0%
Vomiting (%) [5, 7]: 0%
Nausea (%) [5, 8]: 0%
Vomiting (%) [5, 8]: 0%
Nausea (%) [5, 9]: 17%
Vomiting (%) [5, 9]: 17%
Nausea (%) [5, 10]: 50%
Vomiting (%) [5, 10]: 17%
average glucose value for the first week ([5]; 1250 micrograms): 9.8 mmol/L
duration of glucose lowering effect ([5]; 1250 micrograms): more than 2 weeks
mean glucose reduction from baseline on day 7 ([5]; 1250 micrograms): 20%
mean glucose reduction from baseline for the first week ([5]; 1250 micrograms, p=0.0007 vs baseline, p=0.0045 vs placebo): 19%
average glucose value for the first week ([5]; 2500 microgram cohort): 9.5 mmol/L
average glucose value for the first week ([5]; 5000 microgram cohort): 8.4 mmol/L
symptoms (headache, dizziness, light-headedness without documented hypoglycaemia) ([5]; 5000 microgram cohort): symptoms linked to an over stimulation of the GLP-1 receptors were observed
injection site reactions [5, 11]: no injection site reactions
safety and tolerability [5, 11]: no safety or tolerability issues
efficacy on glucose ([5]; first two cohorts (310 and 620 micrograms)): Limited or no efficacy
average weight loss at day 7 ([5]; first two non-active cohorts): 0.4 kg
gastric stasis ([5]; in each of the 3750 and 5000 μg cohorts, post-lunch on day one): one mild and transient case of short-term gastric stasis
dose linearity of plasma concentrations ([5]; single SC dose, 310-5000 μg): dose linear
average weight loss at day 7 ([5]; three following cohorts where activity was observed on glucose): 0.9 kg
kaolin intake after dosing relative to 0.9% NaCl (male Sprague-Dawley rats [1]): kaolin intake was only moderately increased after 6 h
kaolin intake relative to 0.9% NaCl, first 2 h (male Sprague-Dawley rats [1]; first 2 h post dose): Minimal kaolin intake

exendin-4(1-39) [reference compound]
conditioned taste aversion (saccharin preference ratio compared to vehicle control) (male Sprague-Dawley rats [2]): decreased significantly the preference saccharine ratio
abnormal clinical signs [3]: No abnormal clinical signs
cumulative food intake relative to 0.9% NaCl group [4]: Reduction in cumulative food intake
cumulative weight gain compared to 0.9% NaCl [4]: not significant
day on which decrease in cumulative food intake reached statistical significance [4]: 16 days
kaolin intake relative to 0.9% NaCl, first 2 h (male Sprague-Dawley rats [6]): Minimal kaolin intake
